# Test results as given in PMC12513996 (Nature Communications, 2025).
# B1: Trx-tagged ATG16L1(78–247) (domain or fragment)
# chain: NDNQLQEMAQLRIKHQEELTELHKKRGELAQLVIDLNNQMQRKDREMQMNEAKIAECLQTISDLETECLDLRTKLCDLERANQTLKDEYDALQITFTALEGKLRKTTEENQELVTRWMAEKAQEANRLNAENEKDSRRRQARLQKELAEAAKEPLPVEQDDDIEVIVDET
# B2: FIP200(1490–1594) (domain or fragment)
# chain: SRHSEKIAIRDFQVGDLVLIILDERHDNYVLFTVSPTLYFLHSESLPALDLKPGEGASGASRRPWVLGKVMEKEYCQAKKAQNRFKVPLGTKFYRVKAVSWNKKV
# B3: FIP200(1490–1594) of the crystallised FIP200 Claw/ATG16L1 FIR complex (domain or fragment)
# chain: B2 chain
# How the values were obtained:
# GST-[…]1 = GST-[…]1 (human, UniProt Q9H0R8 1-117); assay: SEC
# ATG16L1(78–247) = ATG16L1(78–247) (human, UniProt Q676U5 78-247); assay: SEC-MALS
# crystal structure = target: the molecule itself; assay: crystal structure
# FIP200(1490–1594) = target: B2; assay: SEC
# [1] = target: B3; assay: crystal structure
# GST-[…]1, sequence (Q9H0R8 whole entry): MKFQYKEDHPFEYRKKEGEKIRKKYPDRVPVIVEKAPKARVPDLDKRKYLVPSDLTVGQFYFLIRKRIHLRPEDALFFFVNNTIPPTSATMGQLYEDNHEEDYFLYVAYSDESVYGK
binder,measurement,setting,value
B1,binding result,GST-[…]1,binds
B2,stoichiometry N,ATG16L1(78–247),1
B3,stoichiometry N,crystal structure,2
EQDDDIEVIVDET (domain or fragment) [Trx-tagged ATG16L1 FIR],binding result,FIP200(1490–1594),binds
EQDDDIEVIVDET [ATG16L1(235–247) of the crystallised FIP200 Claw/ATG16L1 FIR complex],binding result,[1],binds
